Test results taken from publication PMC8809517, “Cofactor-independent RNA editing by a synthetic S-type PPR protein”.
Substitutions are numbered along the chain they refer to.

T1: GFP-9S library array, motif 4 ND N98M (synthetic construct, N98M)
T1 chain: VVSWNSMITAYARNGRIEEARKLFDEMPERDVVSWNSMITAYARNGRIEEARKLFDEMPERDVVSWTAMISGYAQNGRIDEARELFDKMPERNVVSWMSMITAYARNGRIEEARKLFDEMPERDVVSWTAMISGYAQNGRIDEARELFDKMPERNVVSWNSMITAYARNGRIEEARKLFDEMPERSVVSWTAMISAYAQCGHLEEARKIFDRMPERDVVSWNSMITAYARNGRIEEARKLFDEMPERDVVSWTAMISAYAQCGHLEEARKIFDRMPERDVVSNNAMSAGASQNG

T2: GFP-9S library array, motif 4 ND N98K;D124Q (synthetic construct, N98K;D124Q)
T2 chain: T1 chain with M98K, D124Q

T3: GFP-9S library array, motif 4 ND N98G;D124P (synthetic construct, N98G;D124P)
T3 chain: T1 chain with M98G, D124P

T4: GFP-9S library array, motif 4 ND N98L;D124L (synthetic construct, N98L;D124L)
T4 chain: T1 chain with M98L, D124L

T5: GFP-9S library array, motif 4 ND N98Y;D124T (synthetic construct, N98Y;D124T)
T5 chain: T1 chain with M98Y, D124T

B1: Cy5-rpoA (ssRNA)
RNA: AUUACACGUGA
B2: Cy5-rpoA-G (ssRNA)
RNA: AUUAGACGUGA
B3: IR-rpoA-A (ssRNA)
RNA: AUUAAACGUGA
B4: IR-rpoA-U (ssRNA)
RNA: AUUAUACGUGA

Legend:
Experiment in all cases: high-throughput RNA pulldown from lysate on Ni-NTA beads; HRP: 50 mM Tris pH 8, 150 mM NaCl, 1 mM beta-mercaptoethanol, 50 ug/ml BSA, 3 ug/ml yeast RNA, 0.5% heparin; ITC and FP: Tris pH 8, 200 mM KCl, 5% glycerol; MST: 50 mM Tris pH 8, 200 mM NaCl, 1 mM DTT, BSA, heparin, 0.05% Tween 20
Conditions in all cases: tags: N-terminal His-eGFP
[1] = target: T1, GFP-9S library array, motif 4 ND N98M
[2] = target: T2, GFP-9S library array, motif 4 ND …
[3] = target: T3, GFP-9S library array, motif 4 ND …
[4] = target: T4, GFP-9S library array, motif 4 ND …
[5] = target: T5, GFP-9S library array, motif 4 ND …

Binder | Kd ([1]; label: 5' Cy5) [nM] | Kd ([2]; label: 5' Cy5) [nM] | Kd ([3]; label: 5' Cy5) [nM] | Kd ([4]; label: 5' Cy5) [nM] | Kd ([5]; label: 5' Cy5) [nM] | Kd ([1]; label: 5' IRDye 800CW) [nM] | Kd ([2]; label: 5' IRDye 800CW) [nM] | Kd ([3]; label: 5' IRDye 800CW) [nM] | Kd ([4]; label: 5' IRDye 800CW) [nM] | Kd ([5]; label: 5' IRDye 800CW) [nM]
B1 | 143 | 71.3 | 85.9 | 74.9 | 96.3 |  |  |  |  | 
B2 | 43.1 | 81.3 | 127 | 76.1 | 105 |  |  |  |  | 
B3 |  |  |  |  |  | 296 | 110 | 179 | 157 | 158
B4 |  |  |  |  |  | 129 | 63.7 | 128 | 158 | 75
